Laboratory results: paper PMC9477737, “Structural insights into auxin recognition and efflux by Arabidopsis PIN1” (Nature, 2022)

Legend:
[1] = target: T1, Arabidopsis thaliana PIN1 (PIN-FORMED 1 auxin transporter), full length, N-terminal Flag tag (A. thaliana, UniProt Q9C6B8); assay: cryo-EM structure; purified PIN1 and sybody-21 mixed at a molar ratio of ~1:3, gel filtration in 25 mM HEPES pH 7.4, 150 mM NaCl, 0.02% GDN; apo, IAA-bound (10 mM IAA) and NPA-bound (100 uM NPA) samples; details: both partners purified
T1 construct: PIN1, Arabidopsis thaliana, UniProt Q9C6B8, full length; most of the hydrophilic loop is not visible in the cryo-EM map; Forms a homodimer in the cryo-EM structures; A monomeric class was also seen in the apo sample; also called AtPIN1; WT PIN1

[2] = target: the molecule itself; assay: as above

B1: Sybody-21 (synthetic nanobody selected against PIN1) (VHH)
VHH: QVQLVESGGGLVQAGGSLRLSCAASGFPVNISWMEWYRQVPGKEREWVAAIQSTGSYTWYADSVKGRFTISRDNAKNTVYLQMNSLKPEDTAVYYCRVKVGAYYRGQGTQVTVSA
notes: Selected by ribosome display and phage display from the Concave, Loop or Convex sybody libraries; The BLI methods speak of a His-tagged sybody; How the purified Sybody-21 was made is not described; also called the sybody
- binding result [1]: binds

B2: Arabidopsis thaliana PIN1 (PIN-FORMED 1 auxin transporter), full length, N-terminal Flag tag (natural protein, A. thaliana, UniProt Q9C6B8 1-622, looked up)
chain: MITAADFYHVMTAMVPLYVAMILAYGSVKWWKIFTPDQCSGINRFVALFAVPLLSFHFIAANNPYAMNLRFLAADSLQKVIVLSLLFLWCKLSRNGSLDWTITLFSLSTLPNTLVMGIPLLKGMYGNFSGDLMVQIVVLQCIIWYTLMLFLFEYRGAKLLISEQFPDTAGSIVSIHVDSDIMSLDGRQPLETEAEIKEDGKLHVTVRRSNASRSDIYSRRSQGLSATPRPSNLTNAEIYSLQSSRNPTPRGSSFNHTDFYSMMASGGGRNSNFGPGEAVFGSKGPTPRPSNYEEDGGPAKPTAAGTAAGAGRFHYQSGGSGGGGGAHYPAPNPGMFSPNTGGGGGTAAKGNAPVVGGKRQDGNGRDLHMFVWSSSASPVSDVFGGGGGNHHADYSTATNDHQKDVKISVPQGNSNDNQYVEREEFSFGNKDDDSKVLATDGGNNISNKTTQAKVMPPTSVMTRLILIMVWRKLIRNPNSYSSLFGITWSLISFKWNIEMPALIAKSISILSDAGLGMAMFSLGLFMALNPRIIACGNRRAAFAAAMRFVVGPAVMLVASYAVGLRGVLLHVAIIQAALPQGIVPFVFAKEYNVHPDILSTAVIFGMLIALPITLLYYILLGL
notes: PIN1, Arabidopsis thaliana, UniProt Q9C6B8, full length; most of the hydrophilic loop is not visible in the cryo-EM map; Forms a homodimer in the cryo-EM structures; A monomeric class was also seen in the apo sample; also called AtPIN1; WT PIN1
- stoichiometry N [2]: 2
